Reference: patent US10941182 (Amgen, dated 2021)
Starred links: 1 amine or outer side, 2 acyl side, 3 side chain; linkers in the order of their positions; H or OH if unused. Non-standard residues stand in square brackets, D forms with d. Primed or numbered codes have the meaning given here. *: point of attachment. AC4Abu = α-carboxy-4-aminobutyric acid, O=C(C(CCN[*:1])C(=O)[*:3])[*:2]; Oic = O=C(O)[C@@H]1C[C@@H]2CCCC[C@@H]2N1; Phe(4-Cl) = N[C@@H](Cc1ccc(Cl)cc1)C(=O)O; γGlu = O=C(O)[C@H](CCC(=O)[*:2])N[*:1]; 2Nal = N[C@@H](Cc1ccc2ccccc2c1)C(=O)O; NMeR = CN[C@@H](CCCNC(=N)N)C(=O)O; Tridecanoyl = CCCCCCCCCCCCC(=O)*; hArg = N=C(N)NCCCC[C@H](N)C(=O)O; Cha = N[C@@H](CC1CCCCC1)C(=O)O; αMeL = CC(C)C[C@](C)(N)C(=O)O; Nle = CCCC[C@H](N)C(=O)O; Pip′ = not defined here; AEEA = NCCOCCOCC(=O)O; Aib = CC(C)(N)C(=O)O; BLeu = β-leucine

T1: rat APJ receptor (rat, UniProt Q9JHG3 1-377)
T1 sequence (looked up): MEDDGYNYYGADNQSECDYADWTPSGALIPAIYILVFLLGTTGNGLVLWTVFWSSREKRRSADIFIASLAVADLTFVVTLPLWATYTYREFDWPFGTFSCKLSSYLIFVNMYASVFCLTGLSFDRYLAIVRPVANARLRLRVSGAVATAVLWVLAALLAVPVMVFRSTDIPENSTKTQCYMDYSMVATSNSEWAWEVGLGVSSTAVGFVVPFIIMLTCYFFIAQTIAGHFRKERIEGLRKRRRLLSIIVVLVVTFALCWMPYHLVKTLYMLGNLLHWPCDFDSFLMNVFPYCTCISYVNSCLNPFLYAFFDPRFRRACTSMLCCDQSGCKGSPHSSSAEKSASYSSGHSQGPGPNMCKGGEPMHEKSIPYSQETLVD

T2: human APJ receptor (human, UniProt P35414 1-380)
T2 sequence (looked up): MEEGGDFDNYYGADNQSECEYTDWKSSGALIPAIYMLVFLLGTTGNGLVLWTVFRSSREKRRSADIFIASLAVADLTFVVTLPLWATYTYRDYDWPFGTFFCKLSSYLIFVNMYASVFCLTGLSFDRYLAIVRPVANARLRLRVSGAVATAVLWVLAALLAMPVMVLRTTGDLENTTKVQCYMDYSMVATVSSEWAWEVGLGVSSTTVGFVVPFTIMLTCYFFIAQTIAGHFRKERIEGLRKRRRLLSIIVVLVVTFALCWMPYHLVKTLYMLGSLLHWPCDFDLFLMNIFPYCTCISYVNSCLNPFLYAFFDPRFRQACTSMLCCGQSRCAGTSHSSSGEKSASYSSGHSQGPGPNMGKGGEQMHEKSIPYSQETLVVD

B1: Apelin polypeptide SEQ ID NO: 528 (peptide)
peptide: Tridecanoyl-[γGlu][AEEA][AEEA][dQ]RP[Nle][Cha]SHKG[Oic][Nle][Aib][Phe(4-Cl)]-OH
SMILES: CCCCCCCCCCCCC(=O)N[C@@H](CCC(=O)NCCOCCOCC(=O)NCCOCCOCC(=O)N[C@H](CCC(N)=O)C(=O)N[C@@H](CCCNC(=N)N)C(=O)N1CCC[C@H]1C(=O)N[C@@H](CCCC)C(=O)N[C@@H](CC1CCCCC1)C(=O)N[C@@H](CO)C(=O)N[C@@H](Cc1c[nH]cn1)C(=O)N[C@@H](CCCCN)C(=O)NCC(=O)N1[C@H](C(=O)N[C@@H](CCCC)C(=O)NC(C)(C)C(=O)N[C@@H](Cc2ccc(Cl)cc2)C(=O)O)C[C@@H]2CCCC[C@@H]21)C(=O)O
B2: Apelin polypeptide SEQ ID NO: 529 (peptide)
peptide: Tridecanoyl-[γGlu][AEEA][AEEA][dQ]RP[Nle][Cha]SAKG[Oic][Nle][Aib][Phe(4-Cl)]-OH
SMILES: CCCCCCCCCCCCC(=O)N[C@@H](CCC(=O)NCCOCCOCC(=O)NCCOCCOCC(=O)N[C@H](CCC(N)=O)C(=O)N[C@@H](CCCNC(=N)N)C(=O)N1CCC[C@H]1C(=O)N[C@@H](CCCC)C(=O)N[C@@H](CC1CCCCC1)C(=O)N[C@@H](CO)C(=O)N[C@@H](C)C(=O)N[C@@H](CCCCN)C(=O)NCC(=O)N1[C@H](C(=O)N[C@@H](CCCC)C(=O)NC(C)(C)C(=O)N[C@@H](Cc2ccc(Cl)cc2)C(=O)O)C[C@@H]2CCCC[C@@H]21)C(=O)O
B3: Apelin polypeptide SEQ ID NO: 396 (peptide)
peptide: Tridecanoyl-[AC4Abu][AEEA][AEEA]QR[NMeR][αMeL]SHKG[Oic][Nle]P[Phe(4-Cl)]-OH
SMILES: CCCCCCCCCCCCC(=O)NCCC(C(=O)O)C(=O)NCCOCCOCC(=O)NCCOCCOCC(=O)N[C@@H](CCC(N)=O)C(=O)N[C@@H](CCCNC(=N)N)C(=O)N(C)[C@@H](CCCNC(=N)N)C(=O)N[C@@](C)(CC(C)C)C(=O)N[C@@H](CO)C(=O)N[C@@H](Cc1c[nH]cn1)C(=O)N[C@@H](CCCCN)C(=O)NCC(=O)N1[C@H](C(=O)N[C@@H](CCCC)C(=O)N2CCC[C@H]2C(=O)N[C@@H](Cc2ccc(Cl)cc2)C(=O)O)C[C@@H]2CCCC[C@@H]21
B4: Apelin polypeptide SEQ ID NO: 356 (peptide)
peptide: Tridecanoyl-[γGlu][AEEA][AEEA]QRP[hArg]LSHKG[Oic][Nle]P[Phe(4-Cl)]-OH
SMILES: CCCCCCCCCCCCC(=O)N[C@@H](CCC(=O)NCCOCCOCC(=O)NCCOCCOCC(=O)N[C@@H](CCC(N)=O)C(=O)N[C@@H](CCCNC(=N)N)C(=O)N1CCC[C@H]1C(=O)N[C@@H](CCCCNC(=N)N)C(=O)N[C@@H](CC(C)C)C(=O)N[C@@H](CO)C(=O)N[C@@H](Cc1c[nH]cn1)C(=O)N[C@@H](CCCCN)C(=O)NCC(=O)N1[C@H](C(=O)N[C@@H](CCCC)C(=O)N2CCC[C@H]2C(=O)N[C@@H](Cc2ccc(Cl)cc2)C(=O)O)C[C@@H]2CCCC[C@@H]21)C(=O)O
B5: Apelin polypeptide SEQ ID NO: 308 (peptide)
peptide: Tridecanoyl-[γGlu][AEEA][AEEA]QRP[hArg][Cha]SHKG[Oic][Nle]P[Phe(4-Cl)]-OH
SMILES: CCCCCCCCCCCCC(=O)N[C@@H](CCC(=O)NCCOCCOCC(=O)NCCOCCOCC(=O)N[C@@H](CCC(N)=O)C(=O)N[C@@H](CCCNC(=N)N)C(=O)N1CCC[C@H]1C(=O)N[C@@H](CCCCNC(=N)N)C(=O)N[C@@H](CC1CCCCC1)C(=O)N[C@@H](CO)C(=O)N[C@@H](Cc1c[nH]cn1)C(=O)N[C@@H](CCCCN)C(=O)NCC(=O)N1[C@H](C(=O)N[C@@H](CCCC)C(=O)N2CCC[C@H]2C(=O)N[C@@H](Cc2ccc(Cl)cc2)C(=O)O)C[C@@H]2CCCC[C@@H]21)C(=O)O
B6: Apelin polypeptide SEQ ID NO: 476 (peptide)
peptide: Tridecanoyl-[γGlu][AEEA][AEEA]QRE[NMeR]LSHKGP[Nle]P[Phe(4-Cl)]-OH
SMILES: CCCCCCCCCCCCC(=O)N[C@@H](CCC(=O)NCCOCCOCC(=O)NCCOCCOCC(=O)N[C@@H](CCC(N)=O)C(=O)N[C@@H](CCCNC(=N)N)C(=O)N[C@@H](CCC(=O)O)C(=O)N(C)[C@@H](CCCNC(=N)N)C(=O)N[C@@H](CC(C)C)C(=O)N[C@@H](CO)C(=O)N[C@@H](Cc1c[nH]cn1)C(=O)N[C@@H](CCCCN)C(=O)NCC(=O)N1CCC[C@H]1C(=O)N[C@@H](CCCC)C(=O)N1CCC[C@H]1C(=O)N[C@@H](Cc1ccc(Cl)cc1)C(=O)O)C(=O)O
B7: Apelin polypeptide SEQ ID NO: 360 (peptide)
peptide: Tridecanoyl-[γGlu][AEEA][AEEA]QRP[hArg][αMeL]SHKG[Oic][Nle]P[Phe(4-Cl)]-OH
SMILES: CCCCCCCCCCCCC(=O)N[C@@H](CCC(=O)NCCOCCOCC(=O)NCCOCCOCC(=O)N[C@@H](CCC(N)=O)C(=O)N[C@@H](CCCNC(=N)N)C(=O)N1CCC[C@H]1C(=O)N[C@@H](CCCCNC(=N)N)C(=O)N[C@@](C)(CC(C)C)C(=O)N[C@@H](CO)C(=O)N[C@@H](Cc1c[nH]cn1)C(=O)N[C@@H](CCCCN)C(=O)NCC(=O)N1[C@H](C(=O)N[C@@H](CCCC)C(=O)N2CCC[C@H]2C(=O)N[C@@H](Cc2ccc(Cl)cc2)C(=O)O)C[C@@H]2CCCC[C@@H]21)C(=O)O
B8: Apelin polypeptide SEQ ID NO: 446 (peptide)
peptide: Tridecanoyl-[γGlu][AEEA][AEEA]QR[NMeR][Cha]SHKG[Oic][Nle]P[Phe(4-Cl)]-OH
SMILES: CCCCCCCCCCCCC(=O)N[C@@H](CCC(=O)NCCOCCOCC(=O)NCCOCCOCC(=O)N[C@@H](CCC(N)=O)C(=O)N[C@@H](CCCNC(=N)N)C(=O)N(C)[C@@H](CCCNC(=N)N)C(=O)N[C@@H](CC1CCCCC1)C(=O)N[C@@H](CO)C(=O)N[C@@H](Cc1c[nH]cn1)C(=O)N[C@@H](CCCCN)C(=O)NCC(=O)N1[C@H](C(=O)N[C@@H](CCCC)C(=O)N2CCC[C@H]2C(=O)N[C@@H](Cc2ccc(Cl)cc2)C(=O)O)C[C@@H]2CCCC[C@@H]21)C(=O)O
B9: Apelin polypeptide SEQ ID NO: 404 (peptide)
peptide: Tridecanoyl-[AC4Abu][AEEA][AEEA]QRP[hArg][αMeL]SHKGP[Nle]P[2Nal]-OH
SMILES: CCCCCCCCCCCCC(=O)NCCC(C(=O)O)C(=O)NCCOCCOCC(=O)NCCOCCOCC(=O)N[C@@H](CCC(N)=O)C(=O)N[C@@H](CCCNC(=N)N)C(=O)N1CCC[C@H]1C(=O)N[C@@H](CCCCNC(=N)N)C(=O)N[C@@](C)(CC(C)C)C(=O)N[C@@H](CO)C(=O)N[C@@H](Cc1c[nH]cn1)C(=O)N[C@@H](CCCCN)C(=O)NCC(=O)N1CCC[C@H]1C(=O)N[C@@H](CCCC)C(=O)N1CCC[C@H]1C(=O)N[C@@H](Cc1ccc2ccccc2c1)C(=O)O

Biological target: T1, rat APJ receptor
Experiment: cell-based or functional assay

EC50 Rat APJ Receptor (GTPγS assay) [nM] | Binder
21.8 | B1
24 | B2
1.14 | B3
0.289 | B4
0.18 | B5
14.8 | Tridecanoyl-[γGlu][AEEA][AEEA]QR[NMeR][BLeu]SHKG[Oic][Nle]P[Phe(4-Cl)]-OH [Apelin polypeptide SEQ ID NO: 447]
0.411 | Tridecanoyl-[γGlu][AEEA][AEEA][dQ]RP[hArg][BLeu]SHKG[Oic][Nle]P[Phe(4-Cl)]-OH [Apelin polypeptide SEQ ID NO: 378]
0.873 | B6
3.21 | Tridecanoyl-[γGlu][AEEA][AEEA][dQ]R[Pip′][hArg][BLeu]SHKG[Oic][Nle][Aib][Phe(4-Cl)]-OH [Apelin polypeptide SEQ ID NO: 521]
4.26 | Tridecanoyl-[γGlu][AEEA][AEEA]QR[Pip′][NMeR][Cha]SHKG[Oic][Nle]P[Phe(4-Cl)]-OH [Apelin polypeptide SEQ ID NO: 440]
3.22 | Tridecanoyl-[γGlu][AEEA][AEEA][dQ]R[Pip′][NMeR][Cha]SHKG[Oic][Nle][Aib][Phe(4-Cl)]-OH [Apelin polypeptide SEQ ID NO: 517]
0.0827 | B7
1.9 | B8
0.361 | B9

Biological target: T2, human APJ receptor
Experiment: cell-based or functional assay

EC50 Human APJ Receptor (GTPγS assay) [nM] | Binder
5.63 | B1
5.26 | B2
0.977 | B3
0.321 | B4
0.0867 | B5
9.66 | Tridecanoyl-[γGlu][AEEA][AEEA]QR[NMeR][BLeu]SHKG[Oic][Nle]P[Phe(4-Cl)]-OH [Apelin polypeptide SEQ ID NO: 447]
0.26 | Tridecanoyl-[γGlu][AEEA][AEEA][dQ]RP[hArg][BLeu]SHKG[Oic][Nle]P[Phe(4-Cl)]-OH [Apelin polypeptide SEQ ID NO: 378]
0.346 | B6
1.03 | Tridecanoyl-[γGlu][AEEA][AEEA][dQ]R[Pip′][hArg][BLeu]SHKG[Oic][Nle][Aib][Phe(4-Cl)]-OH [Apelin polypeptide SEQ ID NO: 521]
3.48 | Tridecanoyl-[γGlu][AEEA][AEEA]QR[Pip′][NMeR][Cha]SHKG[Oic][Nle]P[Phe(4-Cl)]-OH [Apelin polypeptide SEQ ID NO: 440]
0.62 | Tridecanoyl-[γGlu][AEEA][AEEA][dQ]R[Pip′][NMeR][Cha]SHKG[Oic][Nle][Aib][Phe(4-Cl)]-OH [Apelin polypeptide SEQ ID NO: 517]
0.0519 | B7
1.11 | B8
0.298 | B9
